Experimental data from patent US12383572B2, “Administration of an anti-activin-a compound to a subject” (AMGEN INC., priority 2013, dated 2025).

Assays:
[1] = sActRIIB single dose in female Inhα KO mice: survival; format: in vivo, mouse
Description: Eleven-to-fourteen-week-old female Inhα KO mice with body weight from 19.41 to 26.82 grams were subcutaneously (SC) injected with either 30 mg/kg sActRIIB or PBS. Age-matched WT littermate control mice were injected with PBS and served as baseline controls. The study ended by necropsy 2 weeks after injections. Two cohorts of mice were used in the study. Eleven-to-thirteen-week-old female Inhα KO mice with body weight from 17.7 to 27.4 grams were SC injected with either 30 mg/kg sAcLRIIB or PBS. Age-matched WT littermate control mice were injected with PBS and served as baseline controls. The withdrawal lasted for 8 weeks. At the end of the withdrawal, the sActRIIB treated mice were divided by balanced body weight into 2 groups (Group 3 and Group 4).
Group 2 and Group 3 were euthanized to examine the ovarian tumors. Group 4 received another dose of 30 mg/kg sActRIIB and the mice were euthanized together with the WT mice 4 weeks later (total 12 weeks). Mouse body weights were recorded once per week up to 12 weeks. For necropsy, mice were euthanized in a CO2 chamber. Normal ovaries in WT mice and ovarian tumors in Inhα KO mice were collected and weighed. All results were expressed as the mean±standard error of the mean (SEM). Statistical significance of difference between groups was analyzed using Student's 2-tailed t-test on MS Excel 5.0 software. […]

[2] = system: ovarian tumors in inh-KO mice; experiment: Ovarian tumor mass by necropsy in female inh-KO mice; format: in vivo, mouse; settings: 12-week-old female inh-KO mice, single injection 30 mg/kg SC, necropsy 14 days after
Description: Inh-KO mice. 12-week-old female and 8-week-old male inh-KO mice with fully established ovarian or testicular tumors received a single injection of PBS or sActRIIB (30 mg/kg, SC). As a control, age-matched wild-type littermates received a single injection of PBS. Ovarian and testicular organ weights were determined by necropsy 14 days after the injection.

[3] = system: TOV-21G tumors (apoptosis); experiment: Active caspase-3 immunostaining and TUNEL assay on TOV-21G tumor sections; format: in vivo, human; settings: TOV-21G xenograft tumors
Description: Zinc-formalin fixed paraffin tumor tissue sections of 4 μm in thickness were prepared. The sections were subjected to antigen retrieval by microwave 3 min in Unmask solution (Vector H-3300) followed by incubation in 10 μg/ml Proteinase-K for 20 min and in 1% H2O2 in dH2O for 10 min at room temperature. The sections were further incubated in 0.1% Tween-20 in PBS for 3 min to permeabilize the cell membrane and in goat serum for 30 min to block non-specific binding. The sections were then incubated at room temperature with specific primary antibody for 3 hours followed by incubation in biotinylated or fluorescently labeled secondary antibody. Substrate developed in Vector SG kit (SK-4700) or DAB and nuclear-counterstained in Vector Fast Red (H-3403) or in hematoxylin. The immunostained tissue sections were analyzed and photographed using a Nikon Eclipse 90i microscope equipped with DS-Ril camera. […]
Cell apoptosis in TOV-21G tumors was analyzed by measuring the amounts of fragmented DNA in the tumor sections using the DeadEnd Fluorometric TUNEL System following the manufacturer's recommended protocols (Promega, G3250). The fluorescein-12-dUTP-labeled DNA was visualized by Nikon fluorescence microscopy.

[4] = system: Ang-2 mRNA; experiment: Northern blot of Ang-2 mRNA in inh-KO tumors; format: in vivo, mouse; settings: ovarian and testicular tumors, inh-KO mice
Description: (§1) Total RNA was isolated from individual tissue samples after homogenization in Trizol (Invitrogen). A pool of 10 μg RNA for each group containing equal amounts of total RNA isolated from individual animals was subjected to Northern blot analysis. The northern probes used for βA and Ang-2 were generated by using RT-PCR (Phusion, Biolabs). βA primer set: 5′-CCCTTGCTTTGGCTGAGAGGA-3′ (SEQ ID NO: 294) and 5′-TC ACA GGT CGT CGT AGG TCG-3′ (SEQ ID NO: 295); Ang-2 primer set: 5′-TGT GCC GGG GAG AAG AG (SEQ ID NO: 296) and 5′-TACAGTAGTGGGTTGAGGTTC-3′ (SEQ ID NO: 297). To normalize the expression, northern blot membranes were re-probed with β-actin.

[5] = system: activin-A (βA) mRNA; experiment: Northern blot of activin-A (βA) mRNA in inh-KO tumors; format: in vivo, mouse; settings: inh-KO mice, increase vs WT controls
Description: as §1

[6] = system: TOV-21G ovarian xenograft tumors; experiment: sActRIIB and doxorubicin in TOV-21G tumor-bearing nude mice: tumor size and weight; format: in vivo, human; settings: sActRIIB 10 mg/kg SC 1x/week, DOX 2 mg/kg IP 1x/week; 4-week study
Description: The objective of the present study was to examine the effect of pharmacological administration of sActRIIB, doxorubicin (dox), and sActRIIB plus doxorubicin, respectively, on body weight, tumor growth and muscle mass in nude mice implanted with TOV-21G ovarian xenograft tumors. Eight-week-old female Athymic nude mice were SC injected with 0.2 mL of 5×10^6 TOV-21G cells into the left site of the lower flank of the mice. After 10 days of tumor implantation, the mice were divided into 4 groups by body weight and tumor size and then treated with vehicle, sActRIIB, doxorubicin or the combination of sActRIIB and doxorubicin. In addition, a group of non-tumor bearing mice was used as normal control and received PBS.
Mice were weighed weekly. Body weight data were recorded longitudinally. Tumor size was measured longitudinally by using an electronic caliper. The following formula was used to calculate actual tumor volume (Tomayko M and Reynolds C, 1989): (Volume of a rectangular solid tumor: Tumor volume (mm^3)=length (mm)×width (mm)×height (mm) of tumor). At the end of the study, mice in all groups were subjected to terminal necropsy and lean carcass weight (excluding skin, adipose tissue, internal organs, and head) was determined by using standard anatomical dissection procedures. […] All results were expressed as the mean±SEM (standard error of the mean). […]

B1: sActRIIB: extracellular domain of human activin type-2B receptor fused to IgG2 Fc; full length SEQ ID NO: 21 (Table 9) (protein, listed as Homo sapiens)
chain: ETRWCIYYNANWELERTNQSGLERCEGEQDKRLHCYASWRNSSGTIELVKKGCWLDDFNCYDRQECVATEENPQVYFCCCEGNFCNERFTHLPEAGGPEVTYEPPPTAPTGGGGSVECPPCPAPPVAGPSVFLFPPKPKDTLMISRTPEVTCVVVDVSHEDPEVQFNWYVDGVEVHNAKTKPREEQFNSTFRVVSVLTVVHQDWLNGKEYKCKVSNKGLPAPIEKTISKTKGQPREPQVYTLPPSREEMTKNQVSLTCLVKGFYPSDIAVEWESNGQPENNYKTTPPMLDSDGSFFLYSKLTVDKSRWQQGNVFSCSVMHEALHNHYTQKSLSLSPGK
- survival rate at week 8 ([1]; single dose 30 mg/kg SC): 94%
- survival curves, sActRIIB vs. PBS ([1]; single dose, chi-square test): significantly different
- ovarian tumor mass [2]: regressed rapidly to the sizes seen in the WT control mice
- active caspase-3 and DNA fragmentation (TUNEL) [3]: profound increases in active caspase-3 and DNA fragmentation
- Ang-2 mRNA expression in tumors [4]: inhibited its overexpression
- levels of βA transcripts in the tumors [5]: completely blocked
- tumor size and tumor weight vs vehicle-treated TOV-21G group [6]: capable of inhibiting TOV-21G tumor growth
